Measurements reported in article PMC3161976, “Transportin 3 Promotes a Nuclear Maturation Step Required for Efficient HIV-1 Integration” (PLoS Pathogens, 2011).

Molecular target: RanQ69L-GTP (UniProt P62826 1-216, Q69L)
Test: pull-down; GST-Tnp3 or its deletion mutants held on glutathione-Sepharose 4B beads, with RanQ69L-GTP and G2 tRNA, equimolar tRNA and Tnp3; binding buffer 50 mM Hepes pH 7.3, 200 mM NaCl, 2 mM Mg(Ac)2, 10 µM GTP; 4°C; 15% SDS-PAGE and silver staining
Conditions: both partners purified

Binder | binding result
GST-Tnp3 DC825 deletion mutant (domain or fragment, Transportin 3 (Tnp3), human, lacking the last C-terminal 98 residues; made by PCR from pGST-TRN-SR2 with the Tnp3 forward primer (from the start ATG) and the DC825 reverse primer, cloned into pGEX-2T; also called ΔC; C-term deleted Tnp3; source: E. coli BL21(DE3), purified (glutathione-Sepharose beads, Superdex 200 gel filtration); not shown: GST, N-terminal, kept) MEGAKPTLQLVYQAVQALYHDPDPSGKERASFWLGELQRSVHAWEISDQLLQIRQDVESCYFAAQTMKMKIQTSFYELPTDSHASLRDSLLTHIQNLKDLSPVIVTQLALAIADLALQMPSWKGCVQTLVEKYSNDVTSLPFLLEILTVLPEEVHSRSLRIGANRRTEIIEDLAFYSSTVVSLLMTCVEKAGTDEKMLMKVFRCLGSWFNLGVLDSNFMANNKLLALLFEVLQQDKTSSNLHEAASDCVCSALYAIENVETNLPLAMQLFQGVLTLETAYHMAVAREDLDKVLNYCRIFTELCETFLEKIVCTPGQGLGDLRTLELLLICAGHPQYEVVEISFNFWYRLGEHLYKTNDEVIHGIFKAYIQRLLHALARHCQLEPDHEGVPEETDDFGEFRMRVSDLVKDLIFLIGSMECFAQLYSTLKEGNPPWEVTEAVLFIMAAIAKSVDPENNPTLVEVLEGVVRLPETVHTAVRYTSIELVGEMSEVVDRNPQFLDPVLGYLMKGLCEKPLASAAAKAIHNICSVCRDHMAQHFNGLLEIARSLDSFLLSPEAAVGLLKGTALVLARLPLDKITECLSELCSVQVMALKKLLSQEPSNGISSDPTVFLDRLAVIFRHTNPIVENGQTHPCQKVIQEIWPVLSETLNKHRADNRIVERCCRCLRFAVRCVGKGSAALLQPLVTQMVNVYHVHQHSCFLYLGSILVDEYGMEEGCRQGLLDMLQALCIPTFQLLEQQNGLQNHPDTVDDLFRLATRFIQRSPVTLLRSQVVIPILQWAIASTTLDHRDANCSVMRFLRDLIHTGVANDHEEDFELRKELIGQV | binds
GST-Tnp3 (Transportin 3), full length (natural protein, also called GST-Tnp3 (FL); TRN-SR2; source: E. coli BL21(DE3), purified (glutathione-Sepharose beads, dialysis); not shown: GST, N-terminal, kept) MEGAKPTLQLVYQAVQALYHDPDPSGKERASFWLGELQRSVHAWEISDQLLQIRQDVESCYFAAQTMKMKIQTSFYELPTDSHASLRDSLLTHIQNLKDLSPVIVTQLALAIADLALQMPSWKGCVQTLVEKYSNDVTSLPFLLEILTVLPEEVHSRSLRIGANRRTEIIEDLAFYSSTVVSLLMTCVEKAGTDEKMLMKVFRCLGSWFNLGVLDSNFMANNKLLALLFEVLQQDKTSSNLHEAASDCVCSALYAIENVETNLPLAMQLFQGVLTLETAYHMAVAREDLDKVLNYCRIFTELCETFLEKIVCTPGQGLGDLRTLELLLICAGHPQYEVVEISFNFWYRLGEHLYKTNDEVIHGIFKAYIQRLLHALARHCQLEPDHEGVPEETDDFGEFRMRVSDLVKDLIFLIGSMECFAQLYSTLKEGNPPWEVTEAVLFIMAAIAKSVDPENNPTLVEVLEGVVRLPETVHTAVRYTSIELVGEMSEVVDRNPQFLDPVLGYLMKGLCEKPLASAAAKAIHNICSVCRDHMAQHFNGLLEIARSLDSFLLSPEAAVGLLKGTALVLARLPLDKITECLSELCSVQVMALKKLLSQEPSNGISSDPTVFLDRLAVIFRHTNPIVENGQTHPCQKVIQEIWPVLSETLNKHRADNRIVERCCRCLRFAVRCVGKGSAALLQPLVTQMVNVYHVHQHSCFLYLGSILVDEYGMEEGCRQGLLDMLQALCIPTFQLLEQQNGLQNHPDTVDDLFRLATRFIQRSPVTLLRSQVVIPILQWAIASTTLDHRDANCSVMRFLRDLIHTGVANDHEEDFELRKELIGQVMNQLGQQLVSQLLHTCCFCLPPYTLPDVAEVLWEIMQVDRPTFCRWLENSLKGLPKETTVGAVTVTHKQLTDFHKQVTSAEECKQVCWALRDFTRLFR | binds
GST-Tnp3 DC880 deletion mutant (domain or fragment, Transportin 3 (Tnp3), human, C-terminal deletion mutant DC880; made by PCR from pGST-TRN-SR2 with the Tnp3 forward primer (from the start ATG) and the DC880 reverse primer, cloned into pGEX-2T; source: E. coli BL21(DE3), purified (glutathione-Sepharose beads, Superdex 200 gel filtration); not shown: GST, N-terminal, kept) MEGAKPTLQLVYQAVQALYHDPDPSGKERASFWLGELQRSVHAWEISDQLLQIRQDVESCYFAAQTMKMKIQTSFYELPTDSHASLRDSLLTHIQNLKDLSPVIVTQLALAIADLALQMPSWKGCVQTLVEKYSNDVTSLPFLLEILTVLPEEVHSRSLRIGANRRTEIIEDLAFYSSTVVSLLMTCVEKAGTDEKMLMKVFRCLGSWFNLGVLDSNFMANNKLLALLFEVLQQDKTSSNLHEAASDCVCSALYAIENVETNLPLAMQLFQGVLTLETAYHMAVAREDLDKVLNYCRIFTELCETFLEKIVCTPGQGLGDLRTLELLLICAGHPQYEVVEISFNFWYRLGEHLYKTNDEVIHGIFKAYIQRLLHALARHCQLEPDHEGVPEETDDFGEFRMRVSDLVKDLIFLIGSMECFAQLYSTLKEGNPPWEVTEAVLFIMAAIAKSVDPENNPTLVEVLEGVVRLPETVHTAVRYTSIELVGEMSEVVDRNPQFLDPVLGYLMKGLCEKPLASAAAKAIHNICSVCRDHMAQHFNGLLEIARSLDSFLLSPEAAVGLLKGTALVLARLPLDKITECLSELCSVQVMALKKLLSQEPSNGISSDPTVFLDRLAVIFRHTNPIVENGQTHPCQKVIQEIWPVLSETLNKHRADNRIVERCCRCLRFAVRCVGKGSAALLQPLVTQMVNVYHVHQHSCFLYLGSILVDEYGMEEGCRQGLLDMLQALCIPTFQLLEQQNGLQNHPDTVDDLFRLATRFIQRSPVTLLRSQVVIPILQWAIASTTLDHRDANCSVMRFLRDLIHTGVANDHEEDFELRKELIGQVMNQLGQQLVSQLLHTCCFCLPPYTLPDVAEVLWEIMQVDRPTFCRWLENSLKGLP | binds
